# According to patent US20160038588A1, “Myostatin Antagonism in Human Subjects” (AMGEN INC., priority 2013, published 2016):
# Read-outs that look alike come from different tables or passages of the source.
# Columns and labels:
# [1] = Clinical study: pharmacokinetics of AMG 745 after weekly SC doses; conditions: for AUC0-τ / Cmax / CL/F (apparent serum clearance, Dose/AUC Week 4): mean; for AUC0-τ: 7-day dosing interval; for Cmax: serum; for tmax: median
# Experimental: (§1) This was a multicenter, randomized, double-blind, placebo-controlled, ascending-multiple-dose study in men with prostate cancer receiving ADT. The trial was designed to evaluate the safety, tolerability, PK, and pharmacodynamics of AMG 745.
# (§2) Subcutaneous doses of 0.3 mg/kg, 1.0 mg/kg, and 3.0 mg/kg, were each administered once weekly for 4 weeks, and were evaluated in sequential cohorts. Eight subjects, randomized in a 3:1 allocation ratio to AMG 745 or placebo, were enrolled in the 0.3 mg/kg dose cohort and in the 1.0 mg/kg dose cohort. To evaluate safety, tolerability, PK and the effect of 4 weekly doses on lean body mass, a total of thirty-eight subjects were enrolled in the 3.0 mg/kg dose cohort, randomized in a 1:1 allocation ratio to AMG 745 or placebo.
# (§3) The following procedures were performed pre-study and periodically during the study for all cohorts: physical examination, vital signs, electrocardiogram, hematology, chemistry, urinalysis, anti-AMG 745 antibody screen, and blood sample draws for PK. For the 3 mg/kg cohort DXA and lower extremity CT scans were conducted predose and on study day 29 (end of study) and at the one month follow-up visit. All DXA scans were performed on a Hologic or GE Lunar scanner. The same scanner was to be used for all visits for an individual subject. All DXA scans were sent to a central reading facility for review and analysis.
# (§4) The pharmacokinetic analyses included all treated subjects for whom the pharmacokinetic parameters could be estimated. Pharmacokinetic parameters were estimated using noncompartmental methods. Summary statistics by dose cohort were generated for each pharmacokinetic parameter. Graphs of serum AMG 745 concentration-time profiles for individual subjects and the means for each dose were prepared.
# [2] = tested on: men with prostate cancer receiving ADT; assay: Clinical study: safety (adverse events, laboratory variables, ECG, vital signs); type: in vivo, human; conditions: for DEATHS ON STUDY: during study or within 30 days of last dose
# Experimental: Adverse events and concomitant medications were recorded at all study visits.
# For safety analyses, all subjects who received AMG 745 or placebo were included and placebo-treated subjects from all cohorts were combined to form a composite placebo group.
# [3] = tested on: men with prostate cancer receiving ADT; assay: Clinical study: lower extremity strength (1-RM knee extension) and SPPB; type: in vivo, human; design: End of Study SPPB-Total Score, Mean / End of Study SPPB-Total Score, Median / Change from Baseline to End of Study SPPB-Total Score, Mean / Change from Baseline to End of Study SPPB-Total Score, Median / Follow-up SPPB-Total Score, Mean / Follow-up SPPB-Total Score, Median: scale not given here
# Experimental: Lower extremity strength was assessed on the basis of maximum weight lifted for one repetition (1-RM) using a knee extension machine. This assessment was performed within 2 weeks prior to and/or up to Day 2, on Day 29, and at a 1 month follow-up visit.
# Short Physical Performance Battery (SPPB) was conducted within 2 weeks prior to and/or up to Day 1, on Day 29, and at the 1 month follow-up visit. The SPPB included an assessment of standing balance, timed walk test, and five repetitions of chair stand.
# [4] = human, in vivo, sc
# Experimental: as §1, §2, §3, §4
# [5] = tested on: anti-AMG 745 (whole molecule) binding antibodies; assay: Clinical study: anti-AMG 745 binding antibody immunoassays; type: in vivo, human; conditions: subjects who received AMG 745 (1/31)
# Experimental: For the 54 subjects who completed the study serum samples were analysed by surface-plasmon-resonance-based biosensor immunoassays for anti-AMG 745 (whole molecule) binding antibodies. Samples from 2 subjects gave positive results in 1 or more of the immunoassays: […]
# [6] = Week 1 (Dose 1), 0.3 mg/kg SC once-weekly
# [7] = Week 1 (Dose 1), 1 mg/kg SC once-weekly
# [8] = Week 1 (Dose 1), 3 mg/kg SC once-weekly
# [9] = Week 4 (Dose 4), 0.3 mg/kg SC once-weekly
# [10] = Week 4 (Dose 4), 1 mg/kg SC once-weekly
# [11] = Week 4 (Dose 4), 3 mg/kg SC once-weekly
# [12] = 0.3 mg/kg SC 4-Week Dosing (N = 6)
# [13] = 1.0 mg/kg SC 4-Week Dosing (N = 6)
# [14] = 3.0 mg/kg SC 4-Week Dosing (N = 19)
substance,measurement,setting,value
AMG 745: anti-myostatin peptibody: human IgG1 Fc fused at C-terminus via GGGGGAQ linker to peptide SEQ ID NO:311; chain SEQ ID NO:635,dose linearity of pharmacokinetics,"[1]; 4 weekly SC doses, 0.3 to 3 mg/kg",dose-linear pharmacokinetics
same,AUC0-τ,[1]; [6],68.0 µg·h/mL
same,Cmax,[1]; [6],502 ng/mL
same,tmax,"[1]; Week 1 (Dose 1), 0.3 mg/kg SC once-weekly, men with prostate cancer on ADT",72.4 h
same,AUC0-τ,[1]; [7],321 µg·h/mL
same,Cmax,[1]; [7],2380 ng/mL
same,tmax,"[1]; Week 1 (Dose 1), 1 mg/kg SC once-weekly, men with prostate cancer on ADT",24.3 h
same,AUC0-τ,[1]; [8],800 µg·h/mL
same,Cmax,[1]; [8],6380 ng/mL
same,tmax,"[1]; Week 1 (Dose 1), 3 mg/kg SC once-weekly, men with prostate cancer on ADT",71.8 h
same,"CL/F (apparent serum clearance, Dose/AUC Week 4)",[1]; [9],1.96 mL/h/kg
same,AUC0-τ,[1]; [9],175 µg·h/mL
same,Cmax,[1]; [9],1340 ng/mL
same,tmax,[1]; [9],47.8 h
same,"CL/F (apparent serum clearance, Dose/AUC Week 4)",[1]; [10],1.89 mL/h/kg
same,AUC0-τ,[1]; [10],556 µg·h/mL
same,Cmax,[1]; [10],4170 ng/mL
same,tmax,[1]; [10],24.0 h
same,"CL/F (apparent serum clearance, Dose/AUC Week 4)",[1]; [11],2.29 mL/h/kg
same,AUC0-τ,[1]; [11],1380 µg·h/mL
same,Cmax,[1]; [11],10800 ng/mL
same,tmax,[1]; [11],24.0 h
same,ALL ADVERSE EVENTS,[2]; [12],5 (83) n (%)
same,ALL TREATMENT-RELATED ADVERSE EVENTS,[2]; [12],1 (17) n (%)
same,INVESTIGATIONAL PRODUCT DISCONTINUATIONS DUE TO ADVERSE EVENTS,[2]; [12],0 (0) n (%)
same,STUDY DISCONTINUATIONS DUE TO ADVERSE EVENTS,[2]; [12],0 (0) n (%)
same,Serious adverse events (all adverse events),[2]; [12],0 (0) n (%)
same,Serious adverse events (treatment-related),[2]; [12],0 (0) n (%)
same,DEATHS ON STUDY,[2]; [12],0 (0) n (%)
same,ALL ADVERSE EVENTS,[2]; [13],5 (83) n (%)
same,ALL TREATMENT-RELATED ADVERSE EVENTS,[2]; [13],3 (50) n (%)
same,INVESTIGATIONAL PRODUCT DISCONTINUATIONS DUE TO ADVERSE EVENTS,[2]; [13],0 (0) n (%)
same,STUDY DISCONTINUATIONS DUE TO ADVERSE EVENTS,[2]; [13],0 (0) n (%)
same,Serious adverse events (all adverse events),[2]; [13],0 (0) n (%)
same,Serious adverse events (treatment-related),[2]; [13],0 (0) n (%)
same,DEATHS ON STUDY,[2]; [13],0 (0) n (%)
same,ALL ADVERSE EVENTS,[2]; [14],15 (79) n (%)
same,ALL TREATMENT-RELATED ADVERSE EVENTS,[2]; [14],3 (16) n (%)
same,INVESTIGATIONAL PRODUCT DISCONTINUATIONS DUE TO ADVERSE EVENTS,[2]; [14],1 (5) n (%)
same,STUDY DISCONTINUATIONS DUE TO ADVERSE EVENTS,[2]; [14],0 (0) n (%)
same,Serious adverse events (all adverse events),[2]; [14],1 (5) n (%)
same,Serious adverse events (treatment-related),[2]; [14],0 (0) n (%)
same,DEATHS ON STUDY,[2]; [14],0 (0) n (%)
same,relationship between subject incidence of adverse events and dose,[2]; 0.3 to 3 mg/kg,No relationship was apparent
same,highest alanine aminotransferase [ALT],"[2]; 1 subject, 0.3 mg/kg",1.7 times the upper limit of normal (ULN)
same,highest alkaline phosphatase [AP],"[2]; 1 subject, 0.3 mg/kg",1.5 times the upper limit of normal (ULN)
same,highest aspartate aminotransferase [AST],"[2]; 1 subject, 0.3 mg/kg",2.2 times the upper limit of normal (ULN)
same,"injection site bruising, subject incidence",[2]; 2/31,6%
same,subjects discontinued because of adverse events (erythema of the abdomen),"[2]; 3-mg/kg dose cohort, after the second dose",1 subject
same,"serious adverse events (syncope), number","[2]; 3-mg/kg dose cohort, considered unrelated to treatment",1
same,"contusion, subject incidence",[2]; 3/31,10%
same,"diarrhea, subject incidence",[2]; 4/31,13%
same,"fatigue, subject incidence",[2]; 4/31,13%
same,tolerability,"[2]; 4 weekly SC doses, as high as 3.0 mg/kg",generally well tolerated
same,subjects with treatment-related adverse events,"[2]; AMG 745 at any dose, 7 of 31 subjects",23%
same,subjects with adverse events,"[2]; AMG 745 at any dose, 25 of 31 subjects",81%
same,ALL ADVERSE EVENTS,[2]; All AMG 745 Subjects (N = 31),25 (81) n (%)
same,ALL TREATMENT-RELATED ADVERSE EVENTS,[2]; All AMG 745 Subjects (N = 31),7 (23) n (%)
same,INVESTIGATIONAL PRODUCT DISCONTINUATIONS DUE TO ADVERSE EVENTS,[2]; All AMG 745 Subjects (N = 31),1 (3) n (%)
same,STUDY DISCONTINUATIONS DUE TO ADVERSE EVENTS,[2]; All AMG 745 Subjects (N = 31),0 (0) n (%)
same,Serious adverse events (all adverse events),[2]; All AMG 745 Subjects (N = 31),1 (3) n (%)
same,Serious adverse events (treatment-related),[2]; All AMG 745 Subjects (N = 31),0 (0) n (%)
same,DEATHS ON STUDY,[2]; All AMG 745 Subjects (N = 31),0 (0) n (%)
same,"fasting plasma glucose, insulin, cholesterol, LDL, HDL, triglycerides vs placebo","[2]; human, in vivo",no apparent differences between treatment groups
same,"Change from Baseline to End of Study SPPB-Total Score, Mean",[3]; [12],0.67
same,"Change from Baseline to End of Study SPPB-Total Score, Median",[3]; [12],1.00
same,"End of Study SPPB-Total Score, Mean",[3]; [12],11.00
same,"End of Study SPPB-Total Score, Median",[3]; [12],11.00
same,"Follow-up SPPB-Total Score, Mean",[3]; [12],11.00
same,"Follow-up SPPB-Total Score, Median",[3]; [12],11.00
same,"Change from Baseline to End of Study SPPB-Total Score, Mean",[3]; [13],1.50
same,"Change from Baseline to End of Study SPPB-Total Score, Median",[3]; [13],1.50
same,"End of Study SPPB-Total Score, Mean",[3]; [13],10.33
same,"End of Study SPPB-Total Score, Median",[3]; [13],10.00
same,"Follow-up SPPB-Total Score, Mean",[3]; [13],9.50
same,"Follow-up SPPB-Total Score, Median",[3]; [13],9.00
same,"Change from Baseline to End of Study SPPB-Total Score, Mean",[3]; [14],0.37
same,"Change from Baseline to End of Study SPPB-Total Score, Median",[3]; [14],0.00
same,"End of Study SPPB-Total Score, Mean",[3]; [14],10.53
same,"End of Study SPPB-Total Score, Median",[3]; [14],11.00
same,"Follow-up SPPB-Total Score, Mean",[3]; [14],10.68
same,"Follow-up SPPB-Total Score, Median",[3]; [14],11.00
same,"Change from Baseline to End of Study SPPB-Total Score, Mean",[3]; All AMG 745 Subjects (N = 31),0.65
same,"Change from Baseline to End of Study SPPB-Total Score, Median",[3]; All AMG 745 Subjects (N = 31),1.00
same,"End of Study SPPB-Total Score, Mean",[3]; All AMG 745 Subjects (N = 31),10.58
same,"End of Study SPPB-Total Score, Median",[3]; All AMG 745 Subjects (N = 31),11.00
same,"Follow-up SPPB-Total Score, Mean",[3]; All AMG 745 Subjects (N = 31),10.52
same,"Follow-up SPPB-Total Score, Median",[3]; All AMG 745 Subjects (N = 31),11.00
same,"SPPB or 1-RM knee extension, changes from baseline","[3]; four doses, no statistical analyses",effects were not apparent
same,"AR (accumulation ratio, AUC Week 4/AUC Week 1)",[4]; 0.3 mg/kg,2.55
same,"AR (accumulation ratio, AUC Week 4/AUC Week 1)",[4]; 3 mg/kg,1.78
same,incidence of anti-AMG 745 (whole molecule) binding antibodies,[5],3%
